Patent US20230406951A1 (Pfizer, published 2023)

Target: T1, human TNFR2 (human, UniProt P20333 23-461)
T1 construct: expressed on the surface of CHO cells; also called HuTNFR2; TNFRSF1B
T1 sequence: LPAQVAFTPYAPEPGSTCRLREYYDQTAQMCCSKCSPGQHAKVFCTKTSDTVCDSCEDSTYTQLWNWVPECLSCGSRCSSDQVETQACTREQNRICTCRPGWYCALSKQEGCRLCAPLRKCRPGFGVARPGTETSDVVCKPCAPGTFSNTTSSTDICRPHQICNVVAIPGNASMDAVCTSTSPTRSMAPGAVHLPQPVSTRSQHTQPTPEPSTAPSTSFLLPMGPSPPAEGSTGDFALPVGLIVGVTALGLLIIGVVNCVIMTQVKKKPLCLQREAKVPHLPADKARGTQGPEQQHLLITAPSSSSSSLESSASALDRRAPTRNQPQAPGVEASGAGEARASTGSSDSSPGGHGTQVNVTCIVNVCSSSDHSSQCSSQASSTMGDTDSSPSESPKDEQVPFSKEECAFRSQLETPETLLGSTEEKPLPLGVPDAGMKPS
Assay: binding to human TNFR2 CHO cells

| Binder | binding result |
| --- | --- |
| IgG 1982 (antibody, name in Kabat numbering, V domains shown, IgG) VH: QVQLVQSGAEVKKPGASVKVSCKVSGFSFPSSGVDWVRQAPGQGLEWLGVTFQEGSTHYNQKFQGRVTITKDTSKSTVYMELSSLRSEDTAVYYCASGEHDEGFVYWGQGTLVTVSS VL: DIQLTQSPSFLSASVGDRVTITCKASQNVGTAVAWYQQKPGKAPKLLIYAASTLQSGVPSRFSGSGSGTEFTLTISSLQPEDFATYYCQQYNSYPFGGGTKVEIKR | no binding |
| IgG 1987 (antibody, name in Kabat numbering, V domains shown, IgG) VH: QVQLVQSGAEVKKPGASVKVSCKVSGFSFPSSGVDWVRQAPGQGLEWLGVTLGHGSTHYNQKFQGRVTITKDTSKSTVYMELSSLRSEDTAVYYCASGERDEGFVYWGQGTLVTVSS VL: DIQLTQSPSFLSASVGDRVTITCKASQNVGTAVAWYQQKPGKAPKLLIYAASTLQSGVPSRFSGSGSGTEFTLTISSLQPEDFATYYCQQYNSYPFGGGTKVEIKR | no binding |
| IgG 1989 (antibody, name in Kabat numbering, V domains shown, IgG) VH: QVQLVQSGAEVKKPGASVKVSCKVSGFSFPSSGVDWVRQAPGQGLEWLGVTHGSGSTHYNQKFQGRVTITKDTSKSTVYMELSSLRSEDTAVYYCASGESTEGFVYWGQGTLVTVSS VL: DIQLTQSPSFLSASVGDRVTITCKASQNVGTAVAWYQQKPGKAPKLLIYAASTLQSGVPSRFSGSGSGTEFTLTISSLQPEDFATYYCQQYNSYPFGGGTKVEIKR | no binding |
| IgG 1990 (antibody, name in Kabat numbering, V domains shown, IgG) VH: QVQLVQSGAEVKKPGASVKVSCKVSGFSFPSSGVDWVRQAPGQGLEWLGVTHGSGSTHYNQKFQGRVTITKDTSKSTVYMELSSLRSEDTAVYYCASGEHDEGFVYWGQGTLVTVSS VL: DIQLTQSPSFLSASVGDRVTITCKASQNVGTAVAWYQQKPGKAPKLLIYAASTLQSGVPSRFSGSGSGTEFTLTISSLQPEDFATYYCQQYNSYPFGGGTKVEIKR | no binding |
| IgG 1991 (antibody, name in Kabat numbering, V domains shown, IgG) VH: QVQLVQSGAEVKKPGASVKVSCKVSGFSFPSSGVDWVRQAPGQGLEWLGVTHGSGSTHYNQKFQGRVTITKDTSKSTVYMELSSLRSEDTAVYYCASGERDEGFVYWGQGTLVTVSS VL: DIQLTQSPSFLSASVGDRVTITCKASQNVGTAVAWYQQKPGKAPKLLIYAASTLQSGVPSRFSGSGSGTEFTLTISSLQPEDFATYYCQQYNSYPFGGGTKVEIKR | no binding |
| IgG 1997 (antibody, name in Kabat numbering, V domains shown, IgG) VH: QVQLVQSGAEVKKPGASVKVSCKVSGFSFPSSGVDWVRQAPGQGLEWLGVTRGEGSTHYNQKFQGRVTITKDTSKSTVYMELSSLRSEDTAVYYCASGESTEGFVYWGQGTLVTVSS VL: DIQLTQSPSFLSASVGDRVTITCKASQNVGTAVAWYQQKPGKAPKLLIYAASTLQSGVPSRFSGSGSGTEFTLTISSLQPEDFATYYCQQYYSTPFGGGTKVEIKR | no binding |
| IgG 2002 (antibody, name in Kabat numbering, V domains shown, IgG) VH: QVQLVQSGAEVKKPGASVKVSCKVSGFSFPSSGVDWVRQAPGQGLEWLGVTFQEGSTHYNQKFQGRVTITKDTSKSTVYMELSSLRSEDTAVYYCASGEHDEGFVYWGQGTLVTVSS VL: DIQLTQSPSFLSASVGDRVTITCKASQNVGTAVAWYQQKPGKAPKLLIYAASTLQSGVPSRFSGSGSGTEFTLTISSLQPEDFATYYCQQYYSTPFGGGTKVEIKR | no binding |
| IgG 2202 (antibody, name in Kabat numbering, V domains shown, IgG) VH: QVQLVQSGAEVKKPGASVKVSCKVSGFSFPSSGVDWVRQAPGQGLEWLGVTWGVGSTHYNQKFQGRVTITKDTSKSTVYMELSSLRSEDTAVYYCASGEWDEGFVYWGQGTLVTVSS VL: DIQLTQSPSFLSASVGDRVTITCKASQNVGTAVAWYQQKPGKAPKLLIYAASTLQSGVPSRFSGSGSGTEFTLTISSLQPEDFATYYCQQYNSYPFGGGTKVEIKR | no binding |
| IgG 2203 (antibody, name in Kabat numbering, V domains shown, IgG) VH: QVQLVQSGAEVKKPGASVKVSCKVSGFSFPSSGVDWVRQAPGQGLEWLGVTWGVGSTHYNQKFQGRVTITKDTSKSTVYMELSSLRSEDTAVYYCASGEWDEGFVYWGQGTLVTVSS VL: DIQLTQSPSFLSASVGDRVTITCKASQNVGTAVAWYQQKPGKAPKLLIYAASTLQSGVPSRFSGSGSGTEFTLTISSLQPEDFATYYCQQYYSTPFGGGTKVEIKR | no binding |
| TetraFab 2084 (antibody, TetraFab) heavy: QVQLVQSGAEVKKPGASVKVSCKVSGFSFPSSGVDWVRQAPGQGLEWLGVTRGEGSTHYNQKFQGRVTITKDTSKSTVYMELSSLRSEDTAVYYCASGEWDEGFVYWGQGTLVTVSSASTKGPSVFPLAPSSKSTSGGTAALGCLVKDYFPEPVTVSWNSGALTSGVHTFPAVLQSSGLYSLSSVVTVPSSSLGTQTYICNVNHKPSNTKVDKKVEPKSCGGGGSQVQLVQSGAEVKKPGASVKVSCKVSGFSFPSSGVDWVRQAPGQGLEWLGVTRGEGSTHYNQKFQGRVTITKDTSKSTVYMELSSLRSEDTAVYYCASGEWDEGFVYWGQGTLVTVSSASTKGPSVFPLAPSSKSTSGGTAALGCLVKDYFPEPVTVSWNSGALTSGVHTFPAVLQSSGLYSLSSVVTVPSSSLGTQTYICNVNHKPSNTKVDKKVEPKSCDKTHTCPPCPAPEAAGAPSVFLFPPKPKDTLMISRTPEVTCVVVDVSHEDPEVKFNWYVDGVEVHNAKTKPREEQYNSTYRVVSVLTVLHQDWLNGKEYKCKVSNKALPAPIEKTISKAKGQPREPQVYTLPPSREEMTKNQVSLTCLVKGFYPSDIAVEWESNGQPENNYKTTPPVLDSDGSFFLYSKLTVDKSRWQQGNVFSCSVMHEALHNHYTQKSLSLSPGK light: DIQLTQSPSFLSASVGDRVTITCKASQNVGTAVAWYQQKPGKAPKLLIYAASTLQSGVPSRFSGSGSGTEFTLTISSLQPEDFATYYCQQYNSYPFGGGTKVEIKRTVAAPSVFIFPPSDEQLKSGTASVVCLLNNFYPREAKVQWKVDNALQSGNSQESVTEQDSKDSTYSLSSTLTLSKADYEKHKVYACEVTHQGLSSPVTKSFNRGEC | no binding |
| TetraFab 2087 (antibody, TetraFab) heavy: QVQLVQSGAEVKKPGASVKVSCKVSGFSFPSSGVDWVRQAPGQGLEWLGVTHGSGSTHYNQKFQGRVTITKDTSKSTVYMELSSLRSEDTAVYYCASGEWDEGFVYWGQGTLVTVSSASTKGPSVFPLAPSSKSTSGGTAALGCLVKDYFPEPVTVSWNSGALTSGVHTFPAVLQSSGLYSLSSVVTVPSSSLGTQTYICNVNHKPSNTKVDKKVEPKSCGGGGSQVQLVQSGAEVKKPGASVKVSCKVSGFSFPSSGVDWVRQAPGQGLEWLGVTHGSGSTHYNQKFQGRVTITKDTSKSTVYMELSSLRSEDTAVYYCASGEWDEGFVYWGQGTLVTVSSASTKGPSVFPLAPSSKSTSGGTAALGCLVKDYFPEPVTVSWNSGALTSGVHTFPAVLQSSGLYSLSSVVTVPSSSLGTQTYICNVNHKPSNTKVDKKVEPKSCDKTHTCPPCPAPEAAGAPSVFLFPPKPKDTLMISRTPEVTCVVVDVSHEDPEVKFNWYVDGVEVHNAKTKPREEQYNSTYRVVSVLTVLHQDWLNGKEYKCKVSNKALPAPIEKTISKAKGQPREPQVYTLPPSREEMTKNQVSLTCLVKGFYPSDIAVEWESNGQPENNYKTTPPVLDSDGSFFLYSKLTVDKSRWQQGNVFSCSVMHEALHNHYTQKSLSLSPGK light: DIQLTQSPSFLSASVGDRVTITCKASQNVGTAVAWYQQKPGKAPKLLIYAASTLQSGVPSRFSGSGSGTEFTLTISSLQPEDFATYYCQQYNSYPFGGGTKVEIKRTVAAPSVFIFPPSDEQLKSGTASVVCLLNNFYPREAKVQWKVDNALQSGNSQESVTEQDSKDSTYSLSSTLTLSKADYEKHKVYACEVTHQGLSSPVTKSFNRGEC | no binding |
| TetraFab 2096 (antibody, TetraFab) heavy: QVQLVQSGAEVKKPGASVKVSCKVSGFSFPSSGVDWVRQAPGQGLEWLGVTRGEGSTHYNQKFQGRVTITKDTSKSTVYMELSSLRSEDTAVYYCASGESTEGFVYWGQGTLVTVSSASTKGPSVFPLAPSSKSTSGGTAALGCLVKDYFPEPVTVSWNSGALTSGVHTFPAVLQSSGLYSLSSVVTVPSSSLGTQTYICNVNHKPSNTKVDKKVEPKSCGGGGSQVQLVQSGAEVKKPGASVKVSCKVSGFSFPSSGVDWVRQAPGQGLEWLGVTRGEGSTHYNQKFQGRVTITKDTSKSTVYMELSSLRSEDTAVYYCASGESTEGFVYWGQGTLVTVSSASTKGPSVFPLAPSSKSTSGGTAALGCLVKDYFPEPVTVSWNSGALTSGVHTFPAVLQSSGLYSLSSVVTVPSSSLGTQTYICNVNHKPSNTKVDKKVEPKSCDKTHTCPPCPAPEAAGAPSVFLFPPKPKDTLMISRTPEVTCVVVDVSHEDPEVKFNWYVDGVEVHNAKTKPREEQYNSTYRVVSVLTVLHQDWLNGKEYKCKVSNKALPAPIEKTISKAKGQPREPQVYTLPPSREEMTKNQVSLTCLVKGFYPSDIAVEWESNGQPENNYKTTPPVLDSDGSFFLYSKLTVDKSRWQQGNVFSCSVMHEALHNHYTQKSLSLSPGK light: DIQLTQSPSFLSASVGDRVTITCKASQNVGTAVAWYQQKPGKAPKLLIYAASTLQSGVPSRFSGSGSGTEFTLTISSLQPEDFATYYCQQYNSYPFGGGTKVEIKRTVAAPSVFIFPPSDEQLKSGTASVVCLLNNFYPREAKVQWKVDNALQSGNSQESVTEQDSKDSTYSLSSTLTLSKADYEKHKVYACEVTHQGLSSPVTKSFNRGEC | no binding |
